# System: Saccharomyces cerevisiae
# Assay: transcriptional activation domain activity (GFP:mCherry ratio, weighted mean of sorted bins, harmonized to initial dataset scale) (arbitrary fluorescence ratio units); higher = stronger transcriptional activation
# Conditions: beta-estradiol 1 µM; induction time 4 h
# Method in brief: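 The listed activation activity is a read-weighted mean of bin median fluorescence, averaged across barcodes and linearly mapped onto the initial dataset scale. Barcoded tiles, fused to an estradiol-inducible synthetic transcription factor, were integrated at URA3 in yeast diploids bearing a GFP reporter. Cells were held 4 hours at 30 °C in SC with 1 uM beta-estradiol, sorted into 8 GFP:mCherry bins, and sequenced, and tiles with fewer than 50 reads were excluded.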
row,Sequence,transcriptional activation domain activity
1,KLLLVHGRWSYQRIADMHANFFYKNVIWTFGLFWYMPFNGFDATYLYHYTFIL,58100
2,KLLNYLQMDRAKVVSFTIFVFVWSYFRHYLNLVILWSVWTQYDLIPQFARRWV,40000
3,KLLRWYIYPCAYRLGTVCCLFLSEIYNERHRKLSYAVMEPDTWPIMFTDKLAR,74900
4,KLRGYGFVCQMLQLPIVVLQRTKWVRGRETLNNVCFWASMILGLSLVRCLFPL,50200
5,KLRHRLEDEKEANFFRAIIHFTGLRLPQARSKPVNVVRGILLVLCQLVQFSGR,57100
6,KLRKKQHGSNKDTIPSSQSRDIANDYDRGSTDNNLVTTTSTSSIFHDEDLTFF,44400
7,KLSFRLLVLSSSEILVCFPVYPSFVGYDPIFSGFRVKLLIFLLSLWHLLLLFV,42300
8,KLTLADLAPSPMAYRLWMFISGLYSLVDPFVRPLVRTYFAACLRLLIRWVPGI,59400
9,KLWAKRRAIYGNVFGFPGGVAWAMLVARICQLYPNAVSATIVGKFFNILTKWN,33200
10,KLWAKRRAIYSNVMGFLGGVAWAMLTARVCQLYPNACAASIVNRFFRIMYQWN,49800
11,KLWKKPIIVVMAAMPIIMDGVGNLLIPYLHSFVLHSLLFCHKKVAFLMLLLIF,59100
12,KLYQLKLKIFLYWQRYSYLYAKRKHSTKHHTLLVWSLKVKKLYGILWCFLLLF,36600
13,KLYSLGHILHSFIFVFSFFHFLISFLHSGFLCPRLFMFSSSLLFYYFLVGFFF,27700
14,KLYYLAFYSGNILRRDLNLIIGVGKNWNLPAFWAPLLRYVTCPILAIIYSMAY,63600
15,KMEESKKRGTKRKSALASDSEEEEEVKPKPIAKPAKPAAKAESSVHVRKGVVL,17700
16,KMLLDHIKKFVITYTGGLVLACDISRYHEVIVQFKSVQVDEYFNVLKEICSLF,53900
17,KMSTNANNYTGAGNLHAAKPATSPTNVGTLHENLSSSHFMIPDVDQFNSFEDF,30300
18,KMVHRPLLWYFTVFLVDMYTALRLFRLGFRHYAPRTQTRSWFRVFPPRPFTWV,71700
19,KNASFNDADLLSSSYWIKAYNDHLFSVSESDETSPMNSELNDTKLIVPDFKST,69100
20,KNDCCFCYALGLFIRMDCFLRIFVCLCFDVGLYAIEFDLCSLLLACIHVHFSH,36300
21,KNDDRGDRGERRSRSRRRRHSVTGVDRESRAESKHRDPKHRKHRIAEAGAASA,41500

row,Sequence,transcriptional activation domain activity
1,KNEKADKAEKTEKTEQQQSSGARRNRRGRGGNRGGEGGKESKEGGRPAAAAKT,11200
2,KNGWHIIGSSNNVVAYRLRVYQCMDLTTFFSLQAAFSDCERYFVASAIVLDKK,38500
3,KNNDATIDNELTQILNEYNMNFNDNLGTSTSGKNKSACPSSFDANAMTKINPS,51800
4,KNNLWYLPLYLFYLSRVTPAATVVPVFLFFFIFFYFFIFIFYLFLFYLSFSIF,49900
5,KNNNREVEVEAREPHHKGRKNNKREVGEVEARDPHHKGRKNNKREVEVEAREP,52900
6,KPAGIMMFYFPCLYGTFLVGCLGHEINILSMAIANAKLFLLSFLMRGMLCTWN,43200
7,KPATTTASSAQPSTTASATPGGLFGGGAQSGSSTPAGGLFGAKPAAAPSPAPA,44900
8,KPDLYLDILKIIAYSLDDVKFRACQVLFHYYFVSLGHVVVAEALPKLGVTVEI,36400
9,KPEPAGEKAEVANGEGAPEGNRRRPSGRGRGRGRGGRGARGGRDAKEEGAEEA,51900
10,KPEPAGEKGEGAASGGEGQSGGEGGRRRPSGRGRGRGRGRGGRGGRANRGSRG,38800
11,KPESKEKEEEEEETETETETETKPEAKEEPKEEPKEEVNNEKEAEDAAAAEAK,27200
12,KPHGKQAAESTRGQSTTGTNSTTSNSSRASGSRRQETDRGKEGKSNKASSSSG,21900
13,KPHHKWIIPTPFASHAFHPVDGYLQSVPYHLFIFLFPMHQYVYLGLFVAVNFW,72400
14,KPHHKWIVPTPFASHAFHPVDGYFQSLPYHIFIFVFPMQRHLYLALFVAVNCW,41800
15,KPHHKWIVPTPFSSHAFHPVDGYAQSVPYHLFVFIFPMQRHLYLFLFVAVNFW,44100
16,KPKAAAKAAKPAKKAAPEKAEKPEKPEKAKEVEKPEKPEKVSKPAAKKAAPVA,25000
17,KPKPKPKQYPKVILPSNSTRRVSPVTAKTSSSAEGVVVASESPVIAPHGSSHS,47200
18,KPKRKERSDKGKKRGPRAKDGTGTKAAENTLVAKAKPAAKGQEKRRGKADDAK,16700
19,KPKVKKDADDDAMDVDEEEKPKPKPKPRPKPKATSSPKEGEEDEPAKKKLKTS,51400
20,KPLGRQELQRFVALLHSHLETQILEYMHTRRKLSDVVLFLRRTLATCLLLYGC,38100
21,KPLSIILGLVNVFVLYNYLSTGVSLWMISLRFSSFSCRFLADVFSCLLVFLLC,60600

row,Sequence,transcriptional activation domain activity
1,KPLSKRAAPKKAPAKRKSSAGSKSKETSAEPPKKRPAKAKAKPKKEATPASSP,41900
2,KPPCVWCRAVGTAASMLSNLLANGLLAFQCHMGWSIVYIAALLCIIYATTLSL,38300
3,KPTNQTEFDWQVFQQQAFLQQQLAQHNLQAYLSSLNTDTMTNRSPSKSSSIST,66300
4,KQAAEEGDRPKQGGKESGEKENGKAEGSQAREKDRPADGEGKSSDEAGKAKDE,12500
5,KQGQEVEFKPERGVGDLVLKVTGRKRGYRAEERRSNSLRAQLVISHAVPLAVT,60200
6,KQLAKKTESFSGSDLKHLCVSAALDAVKERVTVPWRHSTTSAPSSSAPAEAQP,19000
7,KQPEPRTRSASPKRAASPAKPVAAEKPAAVAAAAEKPAEKVAEKAAEKPAPAV,31400
8,KQPKKKAAAKKAQAPKKGKKRAADDDEEEEGEEDVKPKARGKGKGKAATGKGR,42300
9,KQRKAELIHHVVPLAVAAAFSIFLSGEDLEGPRIYHSMASLKVLRRLVAVISS,54400
10,KQSWSYFYKVLQGLLMDLFFIITIPIYFYYYLPNWNPPLWTLLDFTTLESLNF,69000
11,KQTAAQDSDEEGGGGKLKSKKEKEKEKKEREKQRKKEQAAKKKTAAPAPAKPE,24400
12,KQTRAGQRTRFRAVVIVGDSNGHVGLGVKTSKEVATAIRAAIVIAKLNVIPVR,64200
13,KQYCVRPNSGRIDPGKEVEVQVLLQAMKEDPPLDAKCRDKFLVQSVAVSADKE,64500
14,KQYCVRPNSGRIEAGKDVEVQVLLQAMKEDPPQGYKCRDKFLVQSVAITADRE,21700
15,KQYCVRPNSGRIEAGKEVEVQVLLQAMKEDPPADAKCRDKFLVQSVAISADKE,17800
16,KQYCVRPNSGRIEAGKEVEVQVLLQAMKEDPPPDARCRDKFLVQSVAVTADQE,37200
17,KQYCVRPNSGRIEGGGEVEVQVLLQAMKEDPPLDAKCKDKFLVQSVAVAADRE,46900
18,KQYCVRPNSGRIEPGGEVDVQILLQAMKEDPPADAKCRDKFLVQSVLVTADKE,50100
19,KQYCVRPNSGRIEPGKDVEVQILLQAMKEDPPLDAKCRDKFLVQSVAVSADKE,40700
20,KQYCVRPNSGRIEPGKDVEVQILLQAMKEDPPMDAKCRDKFLVQSVAVTADKE,59200
21,KQYCVRPNSGRIEPGKDVEVQILLQAMKEDPPPDAKCRDKFLVQSVAVSADKE,47000

row,Sequence,transcriptional activation domain activity
1,KQYCVRPNSGRIEPGKDVEVQVLLQAMKEDPAPDAKCRDKFLVQSVAVTADKE,44600
2,KQYCVRPNSGRIEPGKDVEVQVLLQAMKEDPPLDAKCRDKFLVQSVAVTADKE,24900
3,KQYCVRPNSGRIEPGKEVDVQVLLQAMKEDPPLDAKCRDKFLVQSVAVTADKE,27100
4,KQYCVRPNSGRIEPGKEVEVQVILQAMKQEPPPDTKCRDKFLVQAVAIAADKE,29700
5,KQYCVRPNSGRIEPGKEVEVQVLLQAMREDPPPDARCRDKFLVQSVAMTGENE,29400
6,KQYCVRPNSGRIEPGKEVEVTVLLQAMKQEPPIDAKCRDKFLVQSVAVTADKE,51300
7,KQYCVRPNSGRIEPGKSVEVTVLLQAMKAEPPMDAKCRDKFLVQSVAVTADKE,33600
8,KQYCVRPNSGRIEPGKSVEVTVLLQAMKQEPPMDAKCRDKFLVQSVAVTADKE,31600
9,KQYCVRPNSGRIEPGRDVEVQVLLQAMREDPPPDAKCRDKFLVQSVAVTADKE,44900
10,KQYCVRPNSGRIEPGREVEVSVLLQAMKQEPAPDARCRDKFLVQSVTITSDQE,20500
11,KQYCVRPNSGRIEPGSDVEVQILLQAMKEDPPLEAKCRDKFLVQSVAVSADKE,45400
12,KQYCVRPNSGRIESGKEVEVQVLLQAMKNDPPADYKCRDKFLVQSVAITADRE,53400
13,KQYCVRPNSGRIEVGSEVEVQVLLQAMREDPPPDARCRDKFLVQSVAITPERD,42800
14,KRCFSLFFFFFFSFLPFLFLFLSPYCLLNTFVPFSFSFLIYLILLLKFNLSAE,48900
15,KREDIVRVVNGIFCCYILTFSLFFLFFLVYPSLCFLCLFPLCGVLSFFYLYFP,20900
16,KREQREKEKEAEREREREKAARAARRESRREERTRREDEKERGARHEERTSRY,28000
17,KRGEGEAGKESGRQRRSGSAGERAGRRGEGSKEGAEGESEASREKGNKRNDEE,32800
18,KRGRPAKKAQEEVEVEEAAPAKRGRKAVAKEEPAKKETKAKPTTKSRGTKRAA,38600
19,KRHAKRRRDKRKQKEKKNSKRDESSSASDSDRRSQSSSRRSRSSSAGSKRSTR,17400
20,KRHLPWPWNGERLIFILQDVWVPNFNEHHLLWTLDLKRKGLTFIALTNVWGIY,50300
